Experimental findings from PMC11459484 are described below.

The test addresses Selenomonas sp. HNH-Cascade Cas7 (Cas7f1) (Selenomonas sp.). Put plainly: cryo-EM structure; SsCascade RNP (Cas5/6/7/8 and processed crRNA) co-expressed in E. coli, purified by Ni-NTA and gel filtration, mixed with target DNA at ambient temperature for 5 minutes; Map A 3.48 Å, Map B 3.28 Å.

With “Selenomonas sp. HNH-Cascade Cas7 (Cas7f1) (natural protein)”, the stoichiometry N (usually the number of molecules, sites or subunits per partner or assembly) came to 6.
